B4: human BTN3A1 (CD277) expressed on the cell surface (BTN-K32 aAPCs: K562 cells expressing human CD32 and BTN3A1; BMDCs of BTN3A1 knock-in mice) (receptor)
chain: not shown
notes: also called BTNA31-K32; BTN3-K32

Columns and labels:
[1] = biological target: B4; experiment: cell-based or functional assay
[2] = biological target: T1, biotinylated human CD277 Fc fusion (human, UniProt O00481 30-254, limits assumed, biotinylated with EZ-Link Sulfo-NHS biotinylation reagent (sites not given)); experiment: yeast display selection (MACS and FACS) for binders of biotinylated human CD277 Fc fusion
T1 construct: also called human CD277 Fc fusion antigen

[3] = biological target: B4; experiment: binding of recombinant Fc proteins to BTN-K32 aAPCs vs. mock-transduced aAPCs
[4] = biological target: T2, CD5 of OKT3-activated primary αβ T cells (human, UniProt P06127 25-495); experiment: co-immunoprecipitation from activated primary αβ T cells after DTSSP crosslinking, LC-MS/MS
T2 construct: whole, on cells
T2 sequence (looked up): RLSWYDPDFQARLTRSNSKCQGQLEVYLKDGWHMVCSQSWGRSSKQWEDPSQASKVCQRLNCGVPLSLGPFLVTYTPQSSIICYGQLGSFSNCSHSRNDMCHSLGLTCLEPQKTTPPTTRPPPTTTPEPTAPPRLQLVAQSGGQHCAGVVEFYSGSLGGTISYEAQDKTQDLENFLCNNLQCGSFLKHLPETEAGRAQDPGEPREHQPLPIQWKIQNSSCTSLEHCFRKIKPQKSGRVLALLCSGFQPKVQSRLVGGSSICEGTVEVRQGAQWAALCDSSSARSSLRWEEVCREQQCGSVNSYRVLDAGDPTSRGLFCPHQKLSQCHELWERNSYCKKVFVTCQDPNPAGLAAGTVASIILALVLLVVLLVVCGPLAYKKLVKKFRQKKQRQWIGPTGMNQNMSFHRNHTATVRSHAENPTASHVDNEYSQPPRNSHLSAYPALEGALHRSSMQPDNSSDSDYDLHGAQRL
Procedure: (§1) Proteins were eluted with LDS sample buffer supplemented with DTT by heating at 70° C. for 10 minutes. Eluted fractions from BTN3A1-Fc and control were run into an SDS-gel for 0.5 cm, and the entire gel lanes were excised and digested with trypsin. Liquid chromatography tandem mass spectrometry (LC-MS/MS) analysis of tryptic digests was performed by the Wistar Proteomics and Metabolomics Facility using a Q Exactive HF mass spectrometer (Thermo Scientific). MS/MS spectra generated from the LC-MS/MS runs were searched using full tryptic specificity against the UniProt human database (www.uniprot.org; Oct. 1, 2017) using the MaxQuant 1.6.0.16 program. Protein quantitation was based on intensity and MS/MS count was determined from unique and razor peptides (J. Cox, M. Mann, MaxQuant enables high peptide identification rates, individualized p.p.b.-range mass accuracies and proteome-wide protein quantification. Nat Biotechnol 26, 1367-1372 (2008)). False discovery rates for protein and peptide were set at 1%. Protein tables were filtered to remove reverse database entries, common contaminants, and proteins identified by a single peptide.
(§2) To determine the mechanism by which BTN3A1 (also referred to herein as CD277) inhibits αβ T cell activity, the binding of BTN3A1 to potential immunosuppressive receptors was ruled out by comparing the binding of recombinant NKG2A, GPR174, NRP1, NRP2, PD-1, CTLA4, TIM-3 and BTLA Fc proteins to MHC-I⁻CD32⁺ K562 artificial Antigen-Presenting Cells with BTN3A1 retrovirally expressed on the surface of the cell (BTN-K32 aAPCs) vs. mock-transduced aAPCs. Binding of BTN3A1 to these immunosuppressive receptors was not observed. BTN3A1-Fc proteins were then used to co-immunoprecipitate (co-IP) the binding partner(s) of BTN3A1 on OKT3-activated primary αβ T cells from three independent pull downs from three different donors.

[5] = biological target: T3, CD2 of OKT3-activated primary αβ T cells (human, UniProt P06729 25-351); experiment: as above
T3 construct: whole, on cells
T3 sequence (looked up): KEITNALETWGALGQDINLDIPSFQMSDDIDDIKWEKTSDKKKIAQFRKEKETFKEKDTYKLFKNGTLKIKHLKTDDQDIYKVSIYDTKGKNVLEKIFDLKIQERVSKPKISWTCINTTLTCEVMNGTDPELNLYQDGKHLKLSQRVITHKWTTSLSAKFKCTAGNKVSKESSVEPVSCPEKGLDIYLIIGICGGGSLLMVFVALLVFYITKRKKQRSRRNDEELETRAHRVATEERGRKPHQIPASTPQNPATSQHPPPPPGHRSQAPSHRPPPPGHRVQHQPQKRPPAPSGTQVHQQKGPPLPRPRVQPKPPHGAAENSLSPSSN
Procedure: as §1, §2

[6] = biological target: T4, CD44 of OKT3-activated primary αβ T cells (human, UniProt P16070 21-742); experiment: as above
T4 construct: whole, on cells
T4 sequence (P16070 21-742): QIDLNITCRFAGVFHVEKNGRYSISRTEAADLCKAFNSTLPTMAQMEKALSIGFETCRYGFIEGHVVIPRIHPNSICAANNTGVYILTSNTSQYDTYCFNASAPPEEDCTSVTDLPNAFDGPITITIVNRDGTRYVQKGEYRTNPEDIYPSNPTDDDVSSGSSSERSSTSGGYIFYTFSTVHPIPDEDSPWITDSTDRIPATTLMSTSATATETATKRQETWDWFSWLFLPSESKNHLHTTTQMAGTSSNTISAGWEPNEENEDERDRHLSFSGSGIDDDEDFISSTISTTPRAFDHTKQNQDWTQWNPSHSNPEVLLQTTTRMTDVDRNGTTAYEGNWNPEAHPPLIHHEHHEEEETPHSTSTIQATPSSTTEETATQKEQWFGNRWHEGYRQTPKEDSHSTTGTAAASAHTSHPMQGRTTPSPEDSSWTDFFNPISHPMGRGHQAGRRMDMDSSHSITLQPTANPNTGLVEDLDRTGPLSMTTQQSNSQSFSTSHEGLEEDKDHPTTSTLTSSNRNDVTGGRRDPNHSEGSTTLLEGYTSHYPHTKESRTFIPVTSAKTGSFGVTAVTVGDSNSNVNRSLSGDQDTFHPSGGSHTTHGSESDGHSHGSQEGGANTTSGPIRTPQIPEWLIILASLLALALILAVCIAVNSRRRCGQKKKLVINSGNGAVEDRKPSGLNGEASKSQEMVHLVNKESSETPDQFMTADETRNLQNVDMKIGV
Procedure: as §1, §2

[7] = biological target: T5, recombinant NRP2 Fc protein (UniProt O60462 23-864, limits assumed); experiment: binding of recombinant Fc proteins to BTN-K32 aAPCs vs. mock-transduced aAPCs
T5 construct: Construct not described
T5 sequence (looked up): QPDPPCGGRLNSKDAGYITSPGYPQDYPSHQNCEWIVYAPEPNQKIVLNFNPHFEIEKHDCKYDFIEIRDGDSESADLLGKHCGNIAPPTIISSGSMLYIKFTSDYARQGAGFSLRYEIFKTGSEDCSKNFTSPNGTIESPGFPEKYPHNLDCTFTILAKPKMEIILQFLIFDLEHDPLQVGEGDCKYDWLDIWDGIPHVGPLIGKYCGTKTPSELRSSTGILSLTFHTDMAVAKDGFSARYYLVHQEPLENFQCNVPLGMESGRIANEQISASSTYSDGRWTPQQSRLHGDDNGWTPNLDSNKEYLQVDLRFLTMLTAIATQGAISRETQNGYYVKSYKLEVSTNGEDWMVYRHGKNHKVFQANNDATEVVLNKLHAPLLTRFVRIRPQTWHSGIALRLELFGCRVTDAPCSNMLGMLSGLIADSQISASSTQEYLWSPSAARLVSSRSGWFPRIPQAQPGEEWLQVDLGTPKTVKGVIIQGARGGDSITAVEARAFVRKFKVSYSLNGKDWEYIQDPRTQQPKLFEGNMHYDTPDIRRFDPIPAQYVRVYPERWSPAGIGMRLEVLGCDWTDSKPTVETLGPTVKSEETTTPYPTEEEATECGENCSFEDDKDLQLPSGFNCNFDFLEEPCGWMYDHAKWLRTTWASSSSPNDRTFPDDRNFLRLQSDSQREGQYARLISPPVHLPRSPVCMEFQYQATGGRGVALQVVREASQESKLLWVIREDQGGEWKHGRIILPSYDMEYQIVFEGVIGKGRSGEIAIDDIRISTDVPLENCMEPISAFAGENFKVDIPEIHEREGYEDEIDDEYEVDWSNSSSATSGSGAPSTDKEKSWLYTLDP

[8] = biological target: T6, recombinant NRP1 Fc protein (UniProt O14786-2 22-644, limits assumed); experiment: as above
T6 construct: Construct not described
T6 sequence (looked up): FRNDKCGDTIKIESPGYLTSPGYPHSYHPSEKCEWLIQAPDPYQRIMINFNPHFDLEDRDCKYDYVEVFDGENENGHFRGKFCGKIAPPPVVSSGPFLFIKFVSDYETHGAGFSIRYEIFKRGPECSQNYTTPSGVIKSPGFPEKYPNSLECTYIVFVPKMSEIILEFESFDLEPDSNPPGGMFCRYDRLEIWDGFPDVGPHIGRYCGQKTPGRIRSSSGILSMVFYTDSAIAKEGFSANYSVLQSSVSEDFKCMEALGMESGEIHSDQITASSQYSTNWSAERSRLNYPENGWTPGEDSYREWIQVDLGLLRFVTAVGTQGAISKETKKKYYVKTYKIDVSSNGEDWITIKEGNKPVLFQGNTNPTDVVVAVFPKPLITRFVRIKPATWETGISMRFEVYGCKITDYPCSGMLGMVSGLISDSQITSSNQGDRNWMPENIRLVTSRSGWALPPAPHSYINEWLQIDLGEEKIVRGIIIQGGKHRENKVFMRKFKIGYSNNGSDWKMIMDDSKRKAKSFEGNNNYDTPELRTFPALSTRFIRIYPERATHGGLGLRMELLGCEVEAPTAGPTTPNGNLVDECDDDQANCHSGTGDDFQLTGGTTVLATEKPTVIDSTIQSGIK

B1: anti-CD277 monoclonal antibody mAb1 (antibody, human IgG1, kappa, N297A)
heavy: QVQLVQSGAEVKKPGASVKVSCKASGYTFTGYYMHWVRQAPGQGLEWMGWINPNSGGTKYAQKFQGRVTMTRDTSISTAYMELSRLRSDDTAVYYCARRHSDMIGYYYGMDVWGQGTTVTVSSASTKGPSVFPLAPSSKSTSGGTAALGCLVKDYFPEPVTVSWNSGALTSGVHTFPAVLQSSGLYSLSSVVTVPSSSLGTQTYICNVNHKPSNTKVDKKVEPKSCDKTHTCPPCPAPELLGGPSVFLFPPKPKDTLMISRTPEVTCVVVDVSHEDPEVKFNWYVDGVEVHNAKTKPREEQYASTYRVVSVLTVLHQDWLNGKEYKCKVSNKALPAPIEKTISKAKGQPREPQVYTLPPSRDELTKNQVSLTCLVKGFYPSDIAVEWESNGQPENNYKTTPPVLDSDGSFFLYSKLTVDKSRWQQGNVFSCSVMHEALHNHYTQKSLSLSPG
light: DIQMTQSPSSVSASVGDRVTITCRASQGISSWLAWYQQKPGKAPKLLIYAASSLQSGVPSRFSGSGSGTDFTLTISSLQPEDFATYYCQQATDFPPTFGGGTKVEIKRTVAAPSVFIFPPSDEQLKSGTASVVCLLNNFYPREAKVQWKVDNALQSGNSQESVTEQDSKDSTYSLSSTLTLSKADYEKHKVYACEVTHQGLSSPVTKSFNRGEC
notes: also called anti-CD277 antibody mAb1; anti-CD277 mAb1
**Q.** How did the “IFN-γ release of purified CD4+ T cells stimulated with BTN-K32 cells (ELISA, fold over baseline)” value [1] turn out when B1 was run?
**A.** > 2 fold

**Q.** And the “IFN-γ release of purified CD8+ T cells stimulated with BTN-K32 cells (ELISA, fold)” value [1]?
**A.** ~1300 fold

**Q.** And the “proliferation of gated CD4+ T cells within total PBMCs stimulated with anti-CD3/anti-CD28 coated BTN-K32 cells (fold change)” value [1]?
**A.** ≥ 1.5 fold

**Q.** What about the “proliferation of gated CD8+ T cells within total PBMCs stimulated with anti-CD3/anti-CD28 coated BTN-K32 cells (fold change)” value [1] of the same binder?
**A.** ≥ 1.5 fold

**Q.** And the “proliferation of purified CD4+ T cells stimulated with BTN-K32 cells (fold change)” value [1]?
**A.** ≥ 1.5 fold

**Q.** And the “proliferation of purified CD8+ T cells stimulated with BTN-K32 cells (fold change)” value [1]?
**A.** ≥ 2 fold

**Q.** Does B1 bind [2]?
**A.** binds

B2: recombinant NKG2A Fc protein (Fc fusion, not shown: a dimerising Fc or GST)
chain: not shown
notes: Construct not described
**Q.** Does B2 bind [3]?
**A.** no binding

B3: BTN3A1-Fc fusion protein (R&D systems Cat #8539-BT-050) (Fc fusion)
chain: not shown
notes: Bought from R&D systems; also called BTN3A1-Fc proteins; CD277; not shown: Fc part of the bought fusion protein
**Q.** Does B3 bind [4]?
**A.** no binding (tested: 10 µg/ml BTN3A1-Fc)

**Q.** Does B3 bind [5]?
**A.** no binding (tested: 10 µg/ml BTN3A1-Fc)

**Q.** Does B3 bind [6]?
**A.** no binding (tested: 10 µg/ml BTN3A1-Fc)

**Q.** Which results are given for B4?
**A.** binding result [7]: no binding; binding result [8]: no binding
